Data: article PMC4063679 (Structure (London, England : 1993), 2011)
Like-named read-outs stand apart in the source and are kept apart here. Where no end group is shown, it is not given here.

Tests used:
[1] = target: T1, His-tagged I-BAR domain of IRSp53, wild type (human, UniProt Q9UQB8-4 1-250); assay: ITC
T1 sequence: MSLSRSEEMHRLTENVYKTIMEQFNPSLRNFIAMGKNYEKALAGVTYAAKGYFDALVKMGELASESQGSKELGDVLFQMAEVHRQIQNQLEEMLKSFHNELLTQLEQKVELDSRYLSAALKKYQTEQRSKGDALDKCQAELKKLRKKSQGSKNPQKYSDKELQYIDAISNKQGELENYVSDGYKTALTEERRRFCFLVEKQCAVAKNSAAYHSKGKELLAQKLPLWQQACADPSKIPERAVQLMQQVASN

[2] = target: T1, His-tagged I-BAR domain of IRSp53, wild …; assay: ITC; remark: listed apart in the source

Row | Binder | Kd [1] [µM] | Kd [2] [µM]
1 | GTVQNPYADVKT-NH2 [EHEC Tir-derived dodecapeptide GTVQNPYADVKT (residues 452-463)] | 59 ± 10 | 
2 | SEVVNPYAEVGG-NH2 [EPEC Tir-derived 12-mer peptide SEVVNPYAEVGG (residues 448-459)] |  | 37 ± 14
